Assay results as given in patent US20210155689A1 (SHANGHAI PHARMAEXPLORER, published 2021).

Legend:
[1] = target: MHC II on Raji cells; experiment: FACS, Raji cells; 0 ug/ml
[2] = target: MHC II on Raji cells; experiment: FACS, Raji cells; 0.1 ug/ml
[3] = target: MHC II on Raji cells; experiment: FACS, Raji cells; 0.3 ug/ml
[4] = target: MHC II on Raji cells; experiment: FACS, Raji cells; 0.8 ug/ml
[5] = target: MHC II on Raji cells; experiment: FACS, Raji cells; 2.5 ug/ml
[6] = target: MHC II on Raji cells; experiment: FACS, Raji cells; 200 ug/ml
[7] = target: MHC II on Raji cells; experiment: FACS, Raji cells; 7.4 ug/ml
[8] = target: MHC II on Raji cells; experiment: FACS, Raji cells; 22.2 ug/ml
[9] = target: MHC II on Raji cells; experiment: FACS, Raji cells; 66.7 ug/ml
[10] = target: human LAG-3 protein (full length, on cells) (human) (UniProt P18627); experiment: cell-based or functional assay
[11] = target: human LAG-3 protein with hFc tag (hLAG-3-hFc protein) (human) (UniProt P18627); experiment: ELISA, hLAG-3-hFc coated; 0.0000 nM
[12] = target: human LAG-3 protein with hFc tag (hLAG-3-hFc protein) (human) (UniProt P18627); experiment: ELISA, hLAG-3-hFc coated; 0.0001 nM
[13] = target: human LAG-3 protein with hFc tag (hLAG-3-hFc protein) (human) (UniProt P18627); experiment: ELISA, hLAG-3-hFc coated; 0.0007 nM
[14] = target: human LAG-3 protein with hFc tag (hLAG-3-hFc protein) (human) (UniProt P18627); experiment: ELISA, hLAG-3-hFc coated; 0.0067 nM
[15] = target: human LAG-3 protein with hFc tag (hLAG-3-hFc protein) (human) (UniProt P18627); experiment: ELISA, hLAG-3-hFc coated; 0.0667 nM
[16] = target: human LAG-3 protein with hFc tag (hLAG-3-hFc protein) (human) (UniProt P18627); experiment: ELISA, hLAG-3-hFc coated; 0.6667 nM
[17] = target: human LAG-3 protein with hFc tag (hLAG-3-hFc protein) (human) (UniProt P18627); experiment: ELISA, hLAG-3-hFc coated; 6.6667 nM
[18] = target: hFc tagged monkey LAG-3 protein (cLAG-3-hFc protein) (monkey; human); experiment: ELISA, cLAG-3-hFc coated; 0.0000 nM
[19] = target: hFc tagged monkey LAG-3 protein (cLAG-3-hFc protein) (monkey; human); experiment: ELISA, cLAG-3-hFc coated; 0.0001 nM
[20] = target: hFc tagged monkey LAG-3 protein (cLAG-3-hFc protein) (monkey; human); experiment: ELISA, cLAG-3-hFc coated; 0.0007 nM
[21] = target: hFc tagged monkey LAG-3 protein (cLAG-3-hFc protein) (monkey; human); experiment: ELISA, cLAG-3-hFc coated; 0.0067 nM
[22] = target: hFc tagged monkey LAG-3 protein (cLAG-3-hFc protein) (monkey; human); experiment: ELISA, cLAG-3-hFc coated; 0.0667 nM
[23] = target: hFc tagged monkey LAG-3 protein (cLAG-3-hFc protein) (monkey; human); experiment: ELISA, cLAG-3-hFc coated; 0.6667 nM
[24] = target: hFc tagged monkey LAG-3 protein (cLAG-3-hFc protein) (monkey; human); experiment: ELISA, cLAG-3-hFc coated; 6.6667 nM
[25] = target: mouse LAG-3 protein with hFc tag (mLAG-3-hFc protein) (mouse; human) (UniProt Q61790); experiment: ELISA, mLAG-3-hFc coated; 0.0001 nM
[26] = target: mouse LAG-3 protein with hFc tag (mLAG-3-hFc protein) (mouse; human) (UniProt Q61790); experiment: ELISA, mLAG-3-hFc coated; 0.0007 nM
[27] = target: mouse LAG-3 protein with hFc tag (mLAG-3-hFc protein) (mouse; human) (UniProt Q61790); experiment: ELISA, mLAG-3-hFc coated; 0.0067 nM
[28] = target: mouse LAG-3 protein with hFc tag (mLAG-3-hFc protein) (mouse; human) (UniProt Q61790); experiment: ELISA, mLAG-3-hFc coated; 0.0667 nM
[29] = target: mouse LAG-3 protein with hFc tag (mLAG-3-hFc protein) (mouse; human) (UniProt Q61790); experiment: ELISA, mLAG-3-hFc coated; 0.6667 nM
[30] = target: mouse LAG-3 protein with hFc tag (mLAG-3-hFc protein) (mouse; human) (UniProt Q61790); experiment: ELISA, mLAG-3-hFc coated; 6.6667 nM
[31] = target: human LAG-3 protein with hFc tag (hLAG-3-hFc protein) (human) (UniProt P18627); experiment: ELISA, hLAG-3-hFc coated; 66.6670 nM
[32] = target: hFc tagged monkey LAG-3 protein (cLAG-3-hFc protein) (monkey; human); experiment: ELISA, cLAG-3-hFc coated; 66.6670 nM
[33] = target: mouse LAG-3 protein with hFc tag (mLAG-3-hFc protein) (mouse; human) (UniProt Q61790); experiment: ELISA, mLAG-3-hFc coated; 66.6670 nM
[34] = target: human LAG-3 protein (full length, on cells) (human) (UniProt P18627); experiment: FACS on HEK293-hLAG-3 cells, antibody 8 nM
[35] = target: human LAG-3 protein (full length, on cells) (human) (UniProt P18627); experiment: FACS on HEK293-hLAG-3 cells, antibody 1.6 nM
[36] = target: human LAG-3 protein (full length, on cells) (human) (UniProt P18627); experiment: FACS on HEK293-hLAG-3 cells, antibody 0.32 nM
[37] = target: human LAG-3 protein (full length, on cells) (human) (UniProt P18627); experiment: FACS on HEK293-hLAG-3 cells, antibody 0.013 nM
[38] = target: human LAG-3 protein (full length, on cells) (human) (UniProt P18627); experiment: FACS on HEK293-hLAG-3 cells, antibody 0.064 nM
[39] = target: human LAG-3 protein (full length, on cells) (human) (UniProt P18627); experiment: FACS on HEK293-hLAG-3 cells, antibody 0 nM (background)
[40] = target: human LAG-3-hFc protein (human) (UniProt P18627); experiment: competition FACS: inhibition of LAG-3-hFc binding to MHC II on Raji cells, antibody 0.000 nM
[41] = target: human LAG-3-hFc protein (human) (UniProt P18627); experiment: competition FACS: inhibition of LAG-3-hFc binding to MHC II on Raji cells, antibody 0.274 nM
[42] = target: human LAG-3-hFc protein (human) (UniProt P18627); experiment: competition FACS: inhibition of LAG-3-hFc binding to MHC II on Raji cells, antibody 0.823 nM
[43] = target: human LAG-3-hFc protein (human) (UniProt P18627); experiment: competition FACS: inhibition of LAG-3-hFc binding to MHC II on Raji cells, antibody 2.469 nM
[44] = target: human LAG-3-hFc protein (human) (UniProt P18627); experiment: competition FACS: inhibition of LAG-3-hFc binding to MHC II on Raji cells, antibody 7.407 nM
[45] = target: human LAG-3-hFc protein (human) (UniProt P18627); experiment: competition FACS: inhibition of LAG-3-hFc binding to MHC II on Raji cells, antibody 22.222 nM
[46] = target: human LAG-3-hFc protein (human) (UniProt P18627); experiment: competition FACS: inhibition of LAG-3-hFc binding to MHC II on Raji cells, antibody 66.667 nM
[47] = target: human LAG-3-hFc protein (human) (UniProt P18627); experiment: competition FACS: inhibition of LAG-3-hFc binding to MHC II on Raji cells, antibody 200.000 nM

human LAG-3-hFc protein (human), sequence (P18627 23-450): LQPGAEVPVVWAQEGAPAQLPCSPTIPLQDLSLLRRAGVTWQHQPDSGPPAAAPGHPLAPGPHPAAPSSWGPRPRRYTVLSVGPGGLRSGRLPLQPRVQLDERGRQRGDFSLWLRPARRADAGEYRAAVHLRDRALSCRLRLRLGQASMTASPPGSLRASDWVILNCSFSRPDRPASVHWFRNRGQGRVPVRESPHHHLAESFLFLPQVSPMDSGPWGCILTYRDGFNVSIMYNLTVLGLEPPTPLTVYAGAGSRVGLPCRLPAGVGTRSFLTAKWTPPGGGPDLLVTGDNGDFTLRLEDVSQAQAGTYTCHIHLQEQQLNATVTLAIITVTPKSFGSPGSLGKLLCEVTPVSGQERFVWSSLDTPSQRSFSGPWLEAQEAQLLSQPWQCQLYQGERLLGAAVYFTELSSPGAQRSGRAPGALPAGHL
human LAG-3 protein with hFc tag (hLAG-3-hFc protein) (human), sequence (P18627 23-450): as above
hFc tagged monkey LAG-3 protein (cLAG-3-hFc protein) (monkey; human), sequence (chain, as listed by the source): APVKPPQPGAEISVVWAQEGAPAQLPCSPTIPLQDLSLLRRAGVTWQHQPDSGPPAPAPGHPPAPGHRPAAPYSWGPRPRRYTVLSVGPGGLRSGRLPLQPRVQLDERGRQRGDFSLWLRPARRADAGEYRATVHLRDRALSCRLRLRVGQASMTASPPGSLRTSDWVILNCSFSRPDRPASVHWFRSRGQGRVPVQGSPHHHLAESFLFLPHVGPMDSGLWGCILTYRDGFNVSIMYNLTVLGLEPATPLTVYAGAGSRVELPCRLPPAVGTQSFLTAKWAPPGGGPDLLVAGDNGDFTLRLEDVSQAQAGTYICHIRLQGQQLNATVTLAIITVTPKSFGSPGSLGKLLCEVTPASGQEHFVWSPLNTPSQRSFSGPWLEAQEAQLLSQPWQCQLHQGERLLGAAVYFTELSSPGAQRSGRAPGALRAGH
mouse LAG-3 protein with hFc tag (mLAG-3-hFc protein) (mouse; human), sequence (Q61790 24-442): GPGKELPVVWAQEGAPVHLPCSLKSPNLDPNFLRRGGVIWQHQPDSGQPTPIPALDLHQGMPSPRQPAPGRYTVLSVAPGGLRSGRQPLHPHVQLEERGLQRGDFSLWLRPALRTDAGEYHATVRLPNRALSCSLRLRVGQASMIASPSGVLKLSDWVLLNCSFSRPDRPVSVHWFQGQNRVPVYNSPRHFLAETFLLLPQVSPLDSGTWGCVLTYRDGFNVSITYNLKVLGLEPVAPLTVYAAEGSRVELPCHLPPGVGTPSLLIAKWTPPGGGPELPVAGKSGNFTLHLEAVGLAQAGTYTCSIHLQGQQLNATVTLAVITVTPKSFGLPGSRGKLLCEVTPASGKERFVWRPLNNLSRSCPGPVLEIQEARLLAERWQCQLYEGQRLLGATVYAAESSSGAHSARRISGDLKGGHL
human LAG-3 protein (full length, on cells) (human), sequence (P18627 23-525 limits assumed): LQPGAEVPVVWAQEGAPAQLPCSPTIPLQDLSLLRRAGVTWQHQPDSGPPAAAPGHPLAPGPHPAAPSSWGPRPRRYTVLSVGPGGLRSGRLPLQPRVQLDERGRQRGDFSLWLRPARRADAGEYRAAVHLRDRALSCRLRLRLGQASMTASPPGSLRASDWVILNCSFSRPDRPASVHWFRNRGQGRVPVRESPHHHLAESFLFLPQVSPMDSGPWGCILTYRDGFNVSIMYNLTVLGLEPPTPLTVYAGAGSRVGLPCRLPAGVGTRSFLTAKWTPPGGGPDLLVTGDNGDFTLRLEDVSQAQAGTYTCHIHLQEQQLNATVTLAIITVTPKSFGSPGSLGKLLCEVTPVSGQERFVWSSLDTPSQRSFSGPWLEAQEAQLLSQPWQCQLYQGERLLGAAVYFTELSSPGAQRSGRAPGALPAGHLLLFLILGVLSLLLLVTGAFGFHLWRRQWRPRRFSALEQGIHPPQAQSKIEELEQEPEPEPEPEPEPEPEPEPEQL

Substance: hFc (control protein of Table 1)
- Mean fluorescence value [1]: 13 MFI
- Mean fluorescence value [2]: 13 MFI
- Mean fluorescence value [3]: 11 MFI
- Mean fluorescence value [4]: 12 MFI
- Mean fluorescence value [5]: 14 MFI
- Mean fluorescence value [6]: 21 MFI
- Mean fluorescence value [7]: 18 MFI
- Mean fluorescence value [8]: 20 MFI
- Mean fluorescence value [9]: 28 MFI

Substance: hIgG control (human IgG) (antibody)
- IL-2 production, pg/ml; antibody 0.0032 ug/ml, N = 1 [10]: 144 pg/mL
- IL-2 production, pg/ml; antibody 0.0032 ug/ml, N = 2 [10]: 123 pg/mL
- IL-2 production, pg/ml; antibody 0.016 ug/ml, N = 1 [10]: 141 pg/mL
- IL-2 production, pg/ml; antibody 0.016 ug/ml, N = 2 [10]: 143 pg/mL
- IL-2 production, pg/ml; antibody 0.08 ug/ml, N = 1 [10]: 157 pg/mL
- IL-2 production, pg/ml; antibody 0.08 ug/ml, N = 2 [10]: 145 pg/mL
- IL-2 production, pg/ml; antibody 0.4 ug/ml, N = 1 [10]: 159 pg/mL
- IL-2 production, pg/ml; antibody 0.4 ug/ml, N = 2 [10]: 179 pg/mL
- IL-2 production, pg/ml; antibody 2 ug/ml, N = 1 [10]: 164 pg/mL
- IL-2 production, pg/ml; antibody 2 ug/ml, N = 2 [10]: 162 pg/mL
- IL-2 production, pg/ml; antibody 10 ug/ml, N = 1 [10]: 142 pg/mL
- IL-2 production, pg/ml; antibody 10 ug/ml, N = 2 [10]: 168 pg/mL
- OD450 [11]: 0.11 OD450
- OD450 [12]: 0.1 OD450
- OD450 [13]: 0.1 OD450
- OD450 [14]: 0.13 OD450
- OD450 [15]: 0.11 OD450
- OD450 [16]: 0.14 OD450
- OD450 [17]: 0.29 OD450
- OD450 [18]: 0.13 OD450
- OD450 [19]: 0.14 OD450
- OD450 [20]: 0.13 OD450
- OD450 [21]: 0.19 OD450
- OD450 [22]: 0.14 OD450
- OD450 [23]: 0.18 OD450
- OD450 [24]: 0.29 OD450
- OD450 [25]: 0.08 OD450
- OD450 [26]: 0.07 OD450
- OD450 [27]: 0.08 OD450
- OD450 [28]: 0.08 OD450
- OD450 [29]: 0.09 OD450
- OD450 [30]: 0.18 OD450
- OD450 [31]: 1.17 OD450
- OD450 [32]: 1.16 OD450
- OD450 [33]: 0.56 OD450
- Mean fluorescence intensity [34]: 3 MFI
- Mean fluorescence intensity [35]: 3 MFI
- Mean fluorescence intensity [36]: 3 MFI
- Mean fluorescence intensity [37]: 3 MFI
- Mean fluorescence intensity [38]: 3 MFI
- Mean fluorescence intensity [39]: 3 MFI
- Inhibition rate (%) [40]: 0%
- Inhibition rate (%) [41]: 0%
- Inhibition rate (%) [42]: 2%
- Inhibition rate (%) [43]: 3%
- Inhibition rate (%) [44]: 1%
- Inhibition rate (%) [45]: 0%
- Inhibition rate (%) [46]: 4%
- Inhibition rate (%) [47]: 1%
